Measured values published in the supplement of paper PMC10567573.

B1: GNB5 (parent)
chain: DINSVRYYPSGDAFASGSDDATCR
B2: DVL3 (parent)
chain: HPDPAPFCADNPSELPPPMERTGG

Variants of: B1
Assay: protein stability index of a GFP-peptide fusion (GPS, HEK-293T) (PSI 1-6); higher = more stable
Conditions: c terminus: a fixed tail appended
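Note: lentivirally expressed fusions sorted by FACS into six bins by GFP to DsRed ratio, PSI derived from sequencing read proportions per bin multiplied by bin number.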

Protein stability index: each site, then its substitutions
S10: K 3.71 | L 3.43 | M 3.43 | N 3.95 | P 4.23 | Q 4.08 | R 3.4 | T 3.68 | V 3.73 | W 3.35 | Y 3.1
G11: A 3.61 | C 3.23 | D 4.4 | E 4.72 | F 3.61 | H 3.62 | I 3.59 | K 3.68 | L 3.9 | M 4.02 | N 3.81 | P 3.93 | Q 3.91 | R 3.67 | S 4.09 | T 3.74 | V 3.46 | W 2.91 | Y 3.48
D12: A 3.4 | C 2.66 | E 3.61 | F 2.69 | G 3.54 | H 3.34 | I 3.08 | K 3 | L 2.87 | M 2.7 | N 3.06 | P 3.34 | Q 3.46 | R 3.33 | S 3.46 | T 3.31 | V 2.94 | W 2.77 | Y 3.19
A13: C 3.71 | D 4.47 | E 4.66 | F 3.12 | G 4.03 | H 4.02 | I 3.28 | K 3.53 | L 3.44 | M 3.69 | N 3.98 | P 4.14 | Q 4.4 | R 3.81 | S 3.88 | T 4 | V 3.69 | W 3.42 | Y 3.22
F14: A 4.21 | C 4.16 | D 4.16 | E 5 | G 5.08 | H 3.99 | I 4.49 | K 4.12 | L 4.1 | M 3.85 | N 3.8 | P 4.38 | Q 4.44 | R 3.64 | S 4.64 | T 4.75 | V 4.28 | W 3.94 | Y 4.09
A15: C 3.66 | D 4.16 | E 4.09 | F 2.83 | G 3.51 | H 3.7 | I 3.43 | K 3.58 | L 3.73 | M 3.57 | N 4.12 | P 3.92 | Q 3.86 | R 2.99 | S 3.66 | T 3.63 | V 3.91 | W 3.29 | Y 3.23
S16: A 4.04 | C 3.66 | D 4.27 | E 4.55 | F 3.46 | G 4.28 | H 3.84 | I 3.27 | K 3.34 | L 3.58 | M 3.29 | N 4.15 | P 3.88 | Q 3.78 | R 3.77 | T 3.49 | V 3.84 | W 3.15 | Y 3.55
G17: A 3.74 | C 3.66 | D 4.4 | E 4.34 | F 2.93 | H 3.4 | I 3.21 | K 3.65 | L 3.12 | M 3.29 | N 3.68 | P 4.05 | Q 3.75 | R 3.65 | S 3.84 | T 3.63 | V 3.65 | W 3.07 | Y 3.29
S18: A 3.35 | C 3.88 | D 4.24 | E 4.43 | F 3.26 | G 4.48 | H 3.82 | I 3.56 | K 3.55 | L 3.55 | M 3.49 | N 4 | P 3.74 | Q 3.81 | R 3.12 | T 4.06 | V 3.33 | W 3.02 | Y 3.43
D19: A 2.88 | C 2.85 | E 4.15 | F 2.39 | G 3.79 | H 3.12 | I 3.03 | K 3.7 | L 3.14 | M 2.95 | N 3.2 | P 3.4 | Q 3.75 | R 3.06 | S 3.4 | T 3.25 | V 2.69 | W 3.03 | Y 2.62
D20: A 3.44 | C 3.53 | E 3.94 | F 2.5 | G 3.61 | H 3.04 | I 3.14 | K 3.06 | L 3.15 | M 3.13 | N 3.42 | P 3.4 | Q 3.69 | R 3.2 | S 3.47 | T 3.58 | V 3.27 | W 2.16 | Y 2.6
A21: C 3.82 | D 4.34 | E 4.38 | F 3.3 | G 3.63 | H 3.62 | I 3.44 | K 3.8 | L 3.82 | M 3.44 | N 4.16 | P 4.16 | Q 3.98 | R 3.63 | S 3.91 | T 3.79 | V 3.72 | W 2.79 | Y 3.19
T22: A 3.92 | C 3.65 | D 3.76 | E 4.86 | F 3.42 | G 4.05 | H 4.06 | I 3.84 | K 4.07 | L 3.72 | M 3.47 | N 4.01 | P 3.56 | Q 4.15 | R 3.57 | S 3.91 | V 3.8 | W 3 | Y 2.94
C23: A 4.53 | D 4.48 | E 4.74 | F 3.95 | G 4.39 | H 4.3 | I 4 | K 4.41 | L 3.95 | M 3.62 | N 3.95 | P 4.14 | Q 4.13 | R 3.92 | S 4.05 | T 4.55 | V 3.87 | W 3.14 | Y 3.9
R24: A 4.03 | C 4.06 | D 4.32 | E 4.71 | F 3.51 | G 4.59 | H 4.29 | I 3.77 | K 4.19 | L 3.63 | M 4.03 | N 3.59 | P 4.3 | Q 4.68 | S 4.12 | T 4.41 | V 3.92 | W 3.53 | Y 3.99

Variants of: B2
Assay: as above
Conditions: c terminus: a fixed tail appended

Protein stability index of substitutions, site by site:
H1: E 5.45 | K 5.2 | L 5.58 | M 4.93 | R 4.98
P2: A 2.08 | C 2.28 | D 5.12 | E 4.46 | F 4.57 | G 5.4 | H 3.19 | K 5.1 | L 1.93 | M 2.04 | N 4.74 | Q 1.54 | R 4.33 | S 3.51 | T 2.27 | W 3.03 | Y 3.84
D3: M 3.42 | R 4.13 | V 3.39 | W 2.81
P4: A 4.6 | C 4.85 | D 5.64 | E 5.24 | F 4.71 | G 4.94 | H 4.84 | I 4.99 | K 5.4 | L 4.8 | M 5.22 | N 5.35 | Q 5.3 | R 4.78 | S 5.24 | T 4.9 | V 5.14 | W 5.19 | Y 4.58
A5: C 2.75 | D 3.82 | E 3.91 | F 2.58 | G 2.87 | I 2.77 | K 2.7 | L 2.77 | M 1.82 | N 3.93 | Q 3.42 | R 2.29
